The labels stand for the following.
B1: Chromodomain-helicase-DNA-binding protein 7, residues 2564 to 2605; numbered along this chain, Q9P2D1 (parent)
chain: DPDTRIPVINLEDGTRLVGEDAPKNKDLVEWLKLHPTYTVDM

± gives the uncertainty stated by the source.

In this data set the parent is B1. Briefly: abundance fitness (aPCA) (normalised: wild type 0, dead -1); higher = more abundant; growth selection in yeast, the domain comes from the species named. The conditions noted are these: Homo sapiens.
For DPDTRIPVINLEDGTRLVGEDAPKNKDLVWWLKLHPTYTVDM [E30W], the abundance fitness is -0.529 ± 0.11.
For the variant DPDTRIPVINLEDGTRLVGEDAPKNKDLVDWLKLHPTYTVDM [E30D], the abundance fitness is 0.008 ± 0.063.
The value for DPDTRIPVINLEDGTRLVGEDAPKNKDLVAWLKLHPTYTVDM [E30A] was 0.027 ± 0.12; that for DPDTRIPVINLEDGTRLVGEDAPKNKDLVPWLKLHPTYTVDM [E30P] was -0.345 ± 0.33.
With DPDTRIPVINLEDGTRLVGEDAPKNKDLVLWLKLHPTYTVDM [E30L], the abundance fitness is -0.497 ± 0.056.
Regarding DPDTRIPVINLEDGTRLVGEDAPKNKDLVQWLKLHPTYTVDM [E30Q], the abundance fitness is -0.187 ± 0.13.
Turning to DPDTRIPVINLEDGTRLVGEDAPKNKDLVKWLKLHPTYTVDM [E30K], the abundance fitness is -0.333 ± 0.31.
Take DPDTRIPVINLEDGTRLVGEDAPKNKDLVGWLKLHPTYTVDM [E30G]: the abundance fitness was -0.145 ± 0.056.
In the case of DPDTRIPVINLEDGTRLVGEDAPKNKDLVFWLKLHPTYTVDM [E30F], the abundance fitness is -0.591 ± 0.12.
With DPDTRIPVINLEDGTRLVGEDAPKNKDLVSWLKLHPTYTVDM [E30S], the abundance fitness is -0.023 ± 0.059.
As to DPDTRIPVINLEDGTRLVGEDAPKNKDLVTWLKLHPTYTVDM [E30T], the abundance fitness was -0.022 ± 0.078.
In the case of DPDTRIPVINLEDGTRLVGEDAPKNKDLVHWLKLHPTYTVDM [E30H], the abundance fitness was -0.262 ± 0.095.
With DPDTRIPVINLEDGTRLVGEDAPKNKDLVRWLKLHPTYTVDM [E30R], the abundance fitness is -0.277 ± 0.072.
Turning to DPDTRIPVINLEDGTRLVGEDAPKNKDLVCWLKLHPTYTVDM [E30C], the abundance fitness is -0.253 ± 0.072.
For the variant DPDTRIPVINLEDGTRLVGEDAPKNKDLVEWLDLHPTYTVDM [K33D], the abundance fitness was -0.01 ± 0.13.
The value for DPDTRIPVINLEDGTRLVGEDAPKNKDLVEWLHLHPTYTVDM [K33H] was -0.22 ± 0.46; that for DPDTRIPVINLEDGTRLVGEDAPKNKDLVEWLSLHPTYTVDM [K33S] was -0.01 ± 0.055; that for DPDTRIPVINLEDGTRLVGEDAPKNKDLVEWLTLHPTYTVDM [K33T] was -0.468 ± 0.088.
Take DPDTRIPVINLEDGTRLVGEDAPKNKDLVEWLGLHPTYTVDM [K33G]: the abundance fitness was -0.215 ± 0.071.
Consider DPDTRIPVINLEDGTRLVGEDAPKNKDLVEWLNLHPTYTVDM [K33N], for which the abundance fitness was -0.095 ± 0.078.
Take DPDTRIPVINLEDGTRLVGEDAPKNKDLVEWLLLHPTYTVDM [K33L]: the abundance fitness was -0.17 ± 0.064.
The value for DPDTRIPVINLEDGTRLVGEDAPKNKDLVEWLCLHPTYTVDM [K33C] was -0.4 ± 0.069.
The value for DPDTRIPVINLEDGTRLVGEDAPKNKDLVEWLELHPTYTVDM [K33E] was -0.04 ± 0.074; that for DPDTRIPVINLEDGTRLVGEDAPKNKDLVEWLALHPTYTVDM [K33A] was 0.162 ± 0.12; that for DPDTRIPVINLEDGTRLVGEDAPKNKDLVEWLWLHPTYTVDM [K33W] was -0.319 ± 0.079.
Take DPDTRIPVINLEDGTRLVGEDAPKNKDLVEWLFLHPTYTVDM [K33F]: the abundance fitness is -0.339 ± 0.061.
DPDTRIPVINLEDGTRLVGEDAPKNKDLVEWLVLHPTYTVDM [K33V]: the abundance fitness was -0.261 ± 0.059.
Turning to DPDTRIPVINLEDGTRLVGEDAPKNKDLVEWLILHPTYTVDM [K33I], the abundance fitness was -0.449 ± 0.058.
DPDTRIPVINLEDGTRLVGEDAPKNKDLVEWLKLHDTYTVDM [P36D]: the abundance fitness was -0.685 ± 0.17.
On to DPDTRIPVINLEDGTRLVGEDAPKNKDLVEWLKLHATYTVDM [P36A], for which the abundance fitness is -0.561 ± 0.06.
In the case of DPDTRIPVINLEDGTRLVGEDAPKNKDLVEWLKLHCTYTVDM [P36C], the abundance fitness was -0.78 ± 0.067.
On to DPDTRIPVINLEDGTRLVGEDAPKNKDLVEWLKMHPTYTVDM [L34M], for which the abundance fitness came out at 0.011 ± 0.077.
For DPDTRIPVINLEDGTRLVGEDAPKNKDLVEWLKCHPTYTVDM [L34C], the abundance fitness was -0.002 ± 0.06.
DPDTRIPVINLEDGTRLVGEDAPKNKDLVEWLKTHPTYTVDM [L34T]: the abundance fitness is 0.03 ± 0.093.
Turning to DPDTRIPVINLEDGTRLVGEDAPKNKDLVEWLKPHPTYTVDM [L34P], the abundance fitness was -0.328 ± 0.095.
Consider DPDTRIPVINLEDGTRLVGEDAPKNKDLVEWLKEHPTYTVDM [L34E], for which the abundance fitness was 0.048 ± 0.07.
Consider DPDTRIPVINLEDGTRLVGEDAPKNKDLVEWLKKHPTYTVDM [L34K], for which the abundance fitness was -0.029 ± 0.39.
For DPDTRIPVINLEDGTRLVGEDAPKNKDLVEWLKHHPTYTVDM [L34H], the abundance fitness was -0.037 ± 0.066.
As for DPDTRIPVINLEDGTRLVGEDAPKNKDLVEWLKAHPTYTVDM [L34A], the abundance fitness was found to be 0.141 ± 0.077.
Consider DPDTRIPVINLEDGTRLVGEDAPKNKDLVEWLKNHPTYTVDM [L34N], for which the abundance fitness was -0.014 ± 0.066.
The value for DPDTRIPVINLEDGTRLVGEDAPKNKDLVEWLKFHPTYTVDM [L34F] was -0.334 ± 0.12; that for DPDTRIPVINLEDGTRLVGEDAPKNKDLVEWLKYHPTYTVDM [L34Y] was -0.251 ± 0.052.
Regarding DPDTRIPVINLEDGTRLVGEDAPKNKDLVEWLKDHPTYTVDM [L34D], the abundance fitness is -0.042 ± 0.1.
Regarding DPDTRIPVINLEDGTRLVGEDAPKNKDLVEWLKGHPTYTVDM [L34G], the abundance fitness was -0.047 ± 0.045.
Take DPDTRIPVINLEDGTRLVGEDAPKNKDLVEWLKVHPTYTVDM [L34V]: the abundance fitness is -0.039 ± 0.076.
For the variant DPDTRIPVINLEDGTRLVGEDAPKNKDLVEWLKIHPTYTVDM [L34I], the abundance fitness was -0.417 ± 0.099.
In the case of DPDTRIPVINLEDGTRLVGEDAPKNKDLVEWLKLNPTYTVDM [H35N], the abundance fitness is -0.064 ± 0.077.
The value for DPDTRIPVINLEDGTRLVGEDAPKNKDLVEWLKLLPTYTVDM [H35L] was -0.866 ± 0.08; that for DPDTRIPVINLEDGTRLVGEDAPKNKDLVEWLKLKPTYTVDM [H35K] was -0.546 ± 0.14.
The value for DPDTRIPVINLEDGTRLVGEDAPKNKDLVEWLKLCPTYTVDM [H35C] was -0.866 ± 0.088.
The value for DPDTRIPVINLEDGTRLVGEDAPKNKDLVEWLKLMPTYTVDM [H35M] was -0.469 ± 0.088; that for DPDTRIPVINLEDGTRLVGEDAPKNKDLVEWLKLGPTYTVDM [H35G] was -0.758 ± 0.053.
For the variant DPDTRIPVINLEDGTRLVGEDAPKNKDLVEWLKLTPTYTVDM [H35T], the abundance fitness was -0.616 ± 0.1.
Consider DPDTRIPVINLEDGTRLVGEDAPKNKDLVEWLKLVPTYTVDM [H35V], for which the abundance fitness is -0.751 ± 0.062.
On to DPDTRIPVINLEDGTRLVGEDAPKNKDLVEWLKLEPTYTVDM [H35E], for which the abundance fitness was -0.615 ± 0.093.
DPDTRIPVINLEDGTRLVGEDAPKNKDLVEWLKLYPTYTVDM [H35Y]: the abundance fitness is -0.593 ± 0.072.
For DPDTRIPVINLEDGTRLVGEDAPKNKDLVEWLKLDPTYTVDM [H35D], the abundance fitness is -0.547 ± 0.1.
The value for DPDTRIPVINLEDGTRLVGEDAPKNKDLVEWLKLWPTYTVDM [H35W] was -0.764 ± 0.092; that for DPDTRIPVINLEDGTRLVGEDAPKNKDLVEWLKLFPTYTVDM [H35F] was -0.744 ± 0.074.
For the variant DPDTRIPVINLEDGTRLVGEDAPKNKDLVEWLKLQPTYTVDM [H35Q], the abundance fitness is -0.56 ± 0.099.

The values above are taken from the Human Domainome abundance scans (Beltran et al. 2025).
